Results from the supplement of paper PMC7877785.
± gives the uncertainty stated by the source.

Assay: self-splicing fitness, log relative to wild type (ln ratio); higher = more splicing; Tetrahymena group I intron in knt gene, E. coli kanamycin selection, DiMSum; sequences stand for … in CUCUCU…GGAGGGAAAAGUUAUCAGGCAUGCACCUGGUAGCUAGUCUUUAAACCAAUAGAUUGCAUCGGUUUAAAAGGCAAGACCGUCAAAUUGCGGGAAAGGGGUCAACAGCCGUUCAGUACCAAGUCUCAGGGGAAACUUUGAGAUGGCCUUGCAAAGGGUAUGGUAAUAAGCUGACGGACAUGGUCCUAACCACGCAGCCAAGUCCUAAGUCAACAGAUCUUCUGUUGAUAUGGAUGCAGUUCACAGACUAAAUGUCGGUCGGGGAAGAUGUAUUCUUCUCAUAAGAUAUAGUCGGACCUCUCCUUAAUGGGAGCUAGCGGAUGAAGUGAUGCAACACUGGAGCCGCUGGGAACUAAUUUGUAUGCGAAAGUAUAUUGAUUAGUUUUGGAGUACUCGUGGUCG
In short: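 A randomised library covering all eight P1ex-region intron nucleotides was built with the intron in the knt kanamycin-resistance gene on pET-22b(+) and held in E. coli BL21(DE3). Cells were grown overnight at 37°C or 30°C on LB agar, with or without 25 μg/mL kanamycin, plus 100 μg/mL carbenicillin, 50 μM IPTG and 0.2% rhamnose, and pooled colonies were amplicon-sequenced on an Illumina HiSeq 2500. DiMSum fitness is the error-weighted combination of wild-type-normalised replicate fold changes, kanamycin versus none.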

Row | Sequence | self-splicing fitness (ln) (30 °C) | self-splicing fitness (ln) (37 °C)
1 | GCCGAGCAAUAUUACGUGAG | -1.23 ± 0.09 | -0.333 ± 0.12
2 | GCCGAGCAAUAUUACGUGUC | -3.23 ± 0.14 | -1.64 ± 0.12
3 | GCCGAGCAAUAUUACGUUGA | -3 ± 0.16 | -2.88 ± 0.2
4 | GCCGAGCAAUAUUACGUUUC | -3.12 ± 0.14 | -2.28 ± 0.15
5 | GCCUAGCAAUAUUACGAAGA | -1.82 ± 0.24 | -0.65 ± 0.12
6 | GCCUAGCAAUAUUACGACUA |  | -1.93 ± 0.38
7 | GCCUAGCAAUAUUACGAGCA | -2.26 ± 0.33 | -0.418 ± 0.17
8 | GCCUAGCAAUAUUACGCACA | -0.975 ± 0.12 | -0.604 ± 0.13
9 | GCCUAGCAAUAUUACGCAUU | -0.686 ± 0.051 | -0.35 ± 0.062
10 | GCCUAGCAAUAUUACGCCAC | -2.82 ± 0.26 | -2.2 ± 0.23
11 | GCCUAGCAAUAUUACGCGAC | -1.92 ± 0.19 | -1.05 ± 0.27
12 | GCCUAGCAAUAUUACGCGAG | -2.33 ± 0.21 | -2.29 ± 0.16
13 | GCCUAGCAAUAUUACGCGGA | -0.245 ± 0.08 | 0.226 ± 0.093
14 | GCCUAGCAAUAUUACGCUAC | -2.7 ± 0.21 | -2.81 ± 0.36
15 | GCCUAGCAAUAUUACGCUGU | -0.847 ± 0.09 | 0.254 ± 0.096
16 | GCCUAGCAAUAUUACGGAAC | -0.183 ± 0.091 | 0.0968 ± 0.16
17 | GCCUAGCAAUAUUACGGACG | -1.98 ± 0.2 | -0.148 ± 0.18
18 | GCCUAGCAAUAUUACGGAGU | -0.965 ± 0.085 | -0.198 ± 0.094
19 | GCCUAGCAAUAUUACGGAUC | -0.351 ± 0.12 | -0.096 ± 0.16
20 | GCCUAGCAAUAUUACGGGGU | -3.83 ± 0.19 | -2.19 ± 0.19
21 | GCCUAGCAAUAUUACGUACA | -2.54 ± 0.14 | -1.7 ± 0.13
22 | GCCUAGCAAUAUUACGUACC | -1.18 ± 0.099 | -0.205 ± 0.12
23 | GCCUAGCAAUAUUACGUAGC | -0.323 ± 0.11 | -0.445 ± 0.11
24 | GCCUAGCAAUAUUACGUAGG | -3.69 ± 0.18 | -2.93 ± 0.25
25 | GCCUAGCAAUAUUACGUAGU | -0.126 ± 0.068 | 0.357 ± 0.088

Row | Sequence | self-splicing fitness (ln) (30 °C) | self-splicing fitness (ln) (37 °C)
26 | GCCUAGCAAUAUUACGUAUG | -3.92 ± 0.16 | -2.61 ± 0.13
27 | GCCUAGCAAUAUUACGUAUU | -1.83 ± 0.098 | -1.73 ± 0.14
28 | GCCUAGCAAUAUUACGUCCA | -2.37 ± 0.18 | -1.38 ± 0.18
29 | GCCUAGCAAUAUUACGUCUC | -0.71 ± 0.064 | -0.518 ± 0.086
30 | GCCUAGCAAUAUUACGUGUG | -1.85 ± 0.057 | -0.937 ± 0.065
31 | GCGAAGCAAUAUUACGAAGA | -2.14 ± 0.22 | -0.931 ± 0.21
32 | GCGAAGCAAUAUUACGACGU | -2.69 ± 0.21 | -2.02 ± 0.2
33 | GCGAAGCAAUAUUACGAGAU | -2.89 ± 0.2 | -1.86 ± 0.22
34 | GCGAAGCAAUAUUACGAGUC | -2.93 ± 0.13 | -2.33 ± 0.21
35 | GCGAAGCAAUAUUACGCAAU | -3.2 ± 0.2 | -2.07 ± 0.19
36 | GCGAAGCAAUAUUACGCGUA | -2.03 ± 0.16 | -0.565 ± 0.13
37 | GCGAAGCAAUAUUACGGAAG | -2.62 ± 0.18 | -1.93 ± 0.16
38 | GCGAAGCAAUAUUACGGACU | -0.302 ± 0.12 | 0.296 ± 0.13
39 | GCGAAGCAAUAUUACGGAGG | -2.1 ± 0.18 | -0.467 ± 0.12
40 | GCGAAGCAAUAUUACGGCGC | -2.48 ± 0.29 | -1.01 ± 0.43
41 | GCGAAGCAAUAUUACGGCGG | -2.38 ± 0.19 | -1.34 ± 0.27
42 | GCGAAGCAAUAUUACGGUAA | -2.4 ± 0.15 | -1.65 ± 0.12
43 | GCGAAGCAAUAUUACGGUGC | -3.75 ± 0.18 | -2.95 ± 0.18
44 | GCGAAGCAAUAUUACGUAAU | -1.22 ± 0.097 | -1.07 ± 0.11
45 | GCGAAGCAAUAUUACGUACG | -2.46 ± 0.37 | -2.24 ± 0.34
46 | GCGCAGCAAUAUUACGAAGC | -2.98 ± 0.25 | -2.37 ± 0.18
47 | GCGCAGCAAUAUUACGAAGU | -0.905 ± 0.13 | -0.493 ± 0.16
48 | GCGCAGCAAUAUUACGACAC | -0.738 ± 0.38 | 
49 | GCGCAGCAAUAUUACGACCA | -1.56 ± 0.25 | -0.19 ± 0.23
50 | GCGCAGCAAUAUUACGAGCA | -3.48 ± 0.21 | -1.11 ± 0.14

Row | Sequence | self-splicing fitness (ln) (30 °C) | self-splicing fitness (ln) (37 °C)
51 | GCGCAGCAAUAUUACGAGUA | -2.36 ± 0.11 | -0.845 ± 0.096
52 | GCGCAGCAAUAUUACGAUUC | -0.291 ± 0.09 | 0.1 ± 0.1
53 | GCGCAGCAAUAUUACGCAAA | -1.8 ± 0.087 | -0.777 ± 0.078
54 | GCGCAGCAAUAUUACGCAAG | -3.82 ± 0.23 | -2.52 ± 0.15
55 | GCGCAGCAAUAUUACGCAUC | -0.685 ± 0.092 | -0.339 ± 0.098
56 | GCGCAGCAAUAUUACGCCAA |  | -1.42 ± 0.47
57 | GCGCAGCAAUAUUACGCGAA | -0.172 ± 0.065 | -0.153 ± 0.083
58 | GCGCAGCAAUAUUACGCUAG | -3.26 ± 0.28 | -2.15 ± 0.33
59 | GCGCAGCAAUAUUACGCUGC |  | -3.59 ± 0.43
60 | GCGCAGCAAUAUUACGGAUA | -1.98 ± 0.16 | -0.989 ± 0.13
61 | GCGCAGCAAUAUUACGGCUU | 0.000989 ± 0.11 | 0.531 ± 0.15
62 | GCGCAGCAAUAUUACGGGAC | -2.13 ± 0.097 | 0.393 ± 0.096
63 | GCGCAGCAAUAUUACGGUCG | -2.26 ± 0.23 | -1.81 ± 0.22
64 | GCGCAGCAAUAUUACGUAGA | -2.28 ± 0.1 | -0.72 ± 0.099
65 | GCGCAGCAAUAUUACGUAUC | -0.438 ± 0.068 | -0.609 ± 0.085
66 | GCGCAGCAAUAUUACGUCCA | -1.63 ± 0.12 | -0.0959 ± 0.18
67 | GCGCAGCAAUAUUACGUGCU | -4.09 ± 0.2 | -2.87 ± 0.23
68 | GCGCAGCAAUAUUACGUGUG | -3.2 ± 0.12 | -2.65 ± 0.15
69 | GCGCAGCAAUAUUACGUUAA | -1.45 ± 0.089 | -0.728 ± 0.088
70 | GCGCAGCAAUAUUACGUUCA | -0.782 ± 0.098 | 0.151 ± 0.1
71 | GCGCAGCAAUAUUACGUUGA | -0.0364 ± 0.078 | -0.504 ± 0.085
72 | GCGGAGCAAUAUUACGACAC | -0.913 ± 0.22 | 
73 | GCGGAGCAAUAUUACGACCA |  | -1.68 ± 0.41
74 | GCGGAGCAAUAUUACGACUU | -0.726 ± 0.15 | -1.48 ± 0.29
75 | GCGGAGCAAUAUUACGCAUA | -2.55 ± 0.49 | -2.74 ± 0.36

Row | Sequence | self-splicing fitness (ln) (30 °C) | self-splicing fitness (ln) (37 °C)
76 | GCGGAGCAAUAUUACGCUCA | -0.528 ± 0.3 | -0.54 ± 0.26
77 | GCGGAGCAAUAUUACGCUGA | -3.01 ± 0.35 | 
78 | GCGGAGCAAUAUUACGCUUA |  | 1.64 ± 0.37
79 | GCGGAGCAAUAUUACGGACU | -3.06 ± 0.35 | -0.993 ± 0.19
80 | GCGGAGCAAUAUUACGGGUU | -4.22 ± 0.29 | -1.49 ± 0.14
81 | GCGGAGCAAUAUUACGGUUA | -2.84 ± 0.29 | -0.698 ± 0.21
82 | GCGGAGCAAUAUUACGUCGU | -4.11 ± 0.35 | -2.24 ± 0.36
83 | GCGGAGCAAUAUUACGUUCA | -0.896 ± 0.11 | -0.33 ± 0.096
84 | GCGUAGCAAUAUUACGAAGG |  | -2.27 ± 0.5
85 | GCGUAGCAAUAUUACGACUG | -1.54 ± 0.17 | -0.415 ± 0.17
86 | GCGUAGCAAUAUUACGAGGG | -3.37 ± 0.16 | -1.96 ± 0.17
87 | GCGUAGCAAUAUUACGAUCC | -2.41 ± 0.13 | -0.852 ± 0.15
88 | GCGUAGCAAUAUUACGAUUA | -0.494 ± 0.082 | 0.608 ± 0.085
89 | GCGUAGCAAUAUUACGCAAA | -2.37 ± 0.33 | -3.44 ± 0.42
90 | GCGUAGCAAUAUUACGCCCG |  | 0.544 ± 0.44
91 | GCGUAGCAAUAUUACGCCUA | -1.76 ± 0.45 | -1.07 ± 0.35
92 | GCGUAGCAAUAUUACGCGAG |  | -2.54 ± 0.27
93 | GCGUAGCAAUAUUACGGAGG | -3.61 ± 0.23 | -1.98 ± 0.18
94 | GCGUAGCAAUAUUACGGGCG | -2.97 ± 0.22 | -2.09 ± 0.22
95 | GCGUAGCAAUAUUACGGGUU | -2.12 ± 0.12 | -1.32 ± 0.15
96 | GCGUAGCAAUAUUACGUAUG | -2.96 ± 0.3 | -2 ± 0.24
97 | GCGUAGCAAUAUUACGUAUU | -2.67 ± 0.12 | -2.11 ± 0.19
98 | GCGUAGCAAUAUUACGUCAC |  | -0.245 ± 0.37
99 | GCGUAGCAAUAUUACGUCCG | -2.52 ± 0.26 | -1.48 ± 0.21
